Data reported in US10555972 (INNOPEUTICS, dated 2020).

Target: T1, Nuclear receptor-related factor 1 (Nurr1) (mouse, UniProt Q06219 1-598)
T1 construct: Endogenous transcription factor in mouse ventral midbrain lysates (IP) or frozen tissue sections (PLA); not a recombinant construct; also called NR4A2
Experiment: reciprocal co-immunoprecipitation and Western blot, midbrain lysates of 10-week-old mice
Method: Interaction between Nurr1 and Foxa2 (in mouse VM tissues at 10 weeks of age) was assessed by an IP. Tissues were lysed in IP lysis buffer (Thermo Scientific, Waltham, Mass.) supplemented with protease inhibitors. Lysates were incubated with an anti-Nurr1 antibody (1:1,000, mouse, R&D Systems) or an anti-Foxa2 antibody (1:1,000, goat, Santa Cruz Biotechnology) at 4° C. for 18-24 hours. The mixtures were shaken with magnetic beads (Life Technologies) at room temperature for 1-2 hours. After washing, immunoprecipitated proteins were eluted in a sample buffer and subjected to a Western blot analysis using an anti-Foxa2 antibody (1:1,000, goat, Cell Signaling Technology) or an anti-Nurr1 antibody (1:500, mouse, R&D Systems).
Close physical interaction of these two proteins was confirmed by an in situ proximity ligation assay (PLA), which allows visualization of protein-protein binding by red fluorescence (554 nm) emanating from two proteins in close proximity (FIG. 2E).

T1 sequence (Q06219 whole entry): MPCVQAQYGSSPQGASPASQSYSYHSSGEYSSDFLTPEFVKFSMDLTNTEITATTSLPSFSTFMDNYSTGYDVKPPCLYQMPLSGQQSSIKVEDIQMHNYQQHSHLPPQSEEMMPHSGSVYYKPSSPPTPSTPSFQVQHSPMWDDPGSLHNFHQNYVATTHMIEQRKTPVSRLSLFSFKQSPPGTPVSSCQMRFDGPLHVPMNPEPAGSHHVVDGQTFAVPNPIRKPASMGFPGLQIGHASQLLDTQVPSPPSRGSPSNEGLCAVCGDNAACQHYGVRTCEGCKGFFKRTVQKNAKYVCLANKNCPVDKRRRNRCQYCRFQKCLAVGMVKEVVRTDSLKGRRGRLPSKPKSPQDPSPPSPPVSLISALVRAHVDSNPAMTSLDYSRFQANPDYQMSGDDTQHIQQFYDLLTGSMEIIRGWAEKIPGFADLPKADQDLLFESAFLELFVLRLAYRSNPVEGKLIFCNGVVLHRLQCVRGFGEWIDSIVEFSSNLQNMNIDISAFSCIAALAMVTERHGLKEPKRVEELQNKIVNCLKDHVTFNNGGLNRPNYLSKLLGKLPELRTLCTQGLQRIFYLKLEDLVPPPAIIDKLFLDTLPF

binding result: binds
B1: forkhead box protein A2 (Foxa2) (other, mouse, UniProt P35583 1-459, looked up)
chain: MLGAVKMEGHEPSDWSSYYAEPEGYSSVSNMNAGLGMNGMNTYMSMSAAAMGGGSGNMSAGSMNMSSYVGAGMSPSLAGMSPGAGAMAGMSGSAGAAGVAGMGPHLSPSLSPLGGQAAGAMGGLAPYANMNSMSPMYGQAGLSRARDPKTYRRSYTHAKPPYSYISLITMAIQQSPNKMLTLSEIYQWIMDLFPFYRQNQQRWQNSIRHSLSFNDCFLKVPRSPDKPGKGSFWTLHPDSGNMFENGCYLRRQKRFKCEKQLALKEAAGAASSGGKKTAPGSQASQAQLGEAAGSASETPAGTESPHSSASPCQEHKRGGLSELKGAPASALSPPEPAPSPGQQQQAAAHLLGPPHHPGLPPEAHLKPEHHYAFNHPFSINNLMSSEQQHHHSHHHHQPHKMDLKAYEQVMHYPGGYGSPMPGSLAMGPVTNKAGLDASPLAADTSYYQGVYSRPIMNSS
notes: Endogenous transcription factor in mouse ventral midbrain lysates (IP) or frozen tissue sections (PLA); not a recombinant construct
